Test results published in patent US20170130210A1.
Values joined by “and” are separate entries in the source; they are usually repeats but may differ in a detail not shown here. Equal entries are not always repeated.

Target: Pfk-I with the C-terminal degradation tag DAS+4, expressed from the pfkA locus of E. coli strain IB1863 (E. coli) (UniProt P0A796)
Test: cell-based or functional assay

Pfk-I with the C-terminal degradation tag DAS+4, expressed from the pfkA locus of E. coli strain IB1863 (E. coli), sequence (P0A796 1-320, tags or fused parts left off): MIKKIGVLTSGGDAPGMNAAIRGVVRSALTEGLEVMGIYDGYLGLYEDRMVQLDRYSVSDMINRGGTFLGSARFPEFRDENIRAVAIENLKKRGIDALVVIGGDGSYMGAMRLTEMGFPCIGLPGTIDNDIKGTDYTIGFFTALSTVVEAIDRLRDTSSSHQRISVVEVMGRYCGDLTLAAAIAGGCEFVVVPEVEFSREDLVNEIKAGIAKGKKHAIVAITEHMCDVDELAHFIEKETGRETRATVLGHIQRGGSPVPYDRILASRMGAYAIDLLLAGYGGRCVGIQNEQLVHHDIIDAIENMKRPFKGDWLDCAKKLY

- Pfk activity in crude lysate of IB1863 after aTc induction of SspB, relative to wild-type (% of wild-type): 35 and 18
Substance: SspB, native E. coli adaptor protein (from UniProt P0AFZ3 1-165)
